Here are results for 22 molecules from US12723078 (University of Texas, dated 2026).

In the experiment the target is T1, recombinant LILRB1 (human, UniProt Q8NHL6 24-461).
T1 construct: LILRB1-Fc proteins were also made; also called LILRB1 recombinant proteins
As to the kind of experiment: ELISA, coated recombinant LILRB1, antibody titration.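 Also: serially diluted anti-LILRB1 antibodies incubated 60 min at 37 °C on plates coated with 50 ng/well recombinant protein, TMB colorimetric development read as absorbance at 450 nm.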 On the technique in general: In an ELISA, binding on a coated surface is turned into a signal by an enzyme label.

Substitutions are numbered along the chain they refer to.

T1 sequence (Q8NHL6 24-461 limits assumed): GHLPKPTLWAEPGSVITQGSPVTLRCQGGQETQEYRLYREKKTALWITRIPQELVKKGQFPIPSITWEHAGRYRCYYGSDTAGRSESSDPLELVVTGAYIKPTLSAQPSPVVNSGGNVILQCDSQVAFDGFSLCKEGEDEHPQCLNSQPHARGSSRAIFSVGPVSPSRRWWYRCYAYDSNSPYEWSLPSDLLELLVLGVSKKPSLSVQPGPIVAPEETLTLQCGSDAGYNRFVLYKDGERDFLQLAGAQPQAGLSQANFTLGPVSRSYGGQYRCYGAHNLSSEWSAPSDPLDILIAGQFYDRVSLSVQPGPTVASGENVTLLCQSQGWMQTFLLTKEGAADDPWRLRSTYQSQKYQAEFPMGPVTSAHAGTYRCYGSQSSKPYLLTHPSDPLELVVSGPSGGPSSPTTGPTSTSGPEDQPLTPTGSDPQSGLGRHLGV
Experimental: ELISA. LILRB1 recombinant proteins (50 ng/well, 100 μL per well) were coated on Corning 96-well ELISA plates at 37° C. for 4 hrs. Plates were blocked for 2 hrs at 37° C. with 5% non-fat milk. After washing with PBST, 100 μL of serial diluted anti-LILRB1 antibodies were added and incubated for 60 min at 37° C. […] Plates were washed again with PBST for another 5 times, then the immunoreactions were developed with TMB substrates (Sigma, Cat #T0440) and stopped by the addition of 2 M H_2SO_4 before the plate was read at 450 nm.

B1: B1-#160 (antibody, V domains shown)
VH: QEQLVESGGGLVQPEGSLTLTCKASGIDFSSGYWICWVRQAPGKGLELIACIFTSSGTTYYASWAKGRFTISKTSSTTVTLQMTSLTAADTATYFCARDIYSYGMDLWGPGTLVTVSS
VL: ELDLTQTPASVSAAVGGTVTIKCQASQSISSSYLAWYQQKPGQPPKLLIYSASSTASGVPSRFKGSGSGTQFTLTISDLECADAATYYCQSTYISSSKYGAVFGGGTELEIK
notes: recombinant rabbit IgG
Turning to B1, the EC50 (usually the concentration that produces a half-maximal response) was 0.0285 µg/mL.

B2: B1-#224 (antibody, V domains shown)
VH: B1 VH with Q1E, E2Q, Q3S, L4V, V5E, K23T, Y33A, S55T, T58F, V116I
VL: ELVLTQTPSSVSEPVGGTVTIKCQASQSISSSYLAWYQQKPGQPPKFLIYSASTLASGVPSRFKGSGSGTEFTLTISDLECADAATYYCQSTYISSSNYGAAFGGGTEVEIK
notes: recombinant rabbit IgG
B2: the EC50 was found to be 0.0109 µg/mL.

B3: B1-#175 (antibody, V domains shown)
VH: ESEGGLVKPGGTLTLTCKVSGIDFNSYKYYYMCWVRQAPGKGLEWIGCMSTASRNIYYASWAKGRFTISETSSTSVTLQMTTLTAADTATYFCAKSHGGDGGYGVVLWGPGTLVTISS
VL: ELVMTQTPSSVSAAVGDTLTINCQASETISNRLAWYQQKPGQPPKLLIYSASTLESGVPSRFRGSGSGTQFTLTISDLECADAATYYCQSIRSSSGVVHPNTFGGGTEVEIK
notes: recombinant rabbit IgG
For B3, the EC50 was 0.0053 µg/mL.

B4: B1-#25 (antibody, V domains shown)
VH: EQSVKESGGGLVQPEGSLTLTCKVSGIDFNYYNYYYMCWVRQAPGKGLEWIGCMSTASANIYLASWAKGRFTISEASSTTVTLQMTSLTAADTATYFCAKSHGGDGGYGVVLWGPGTLVTISS
VL: B3 VL with V3D, M4L, S9F, D17G, L19V, N22K, R63K, Q70E, V97I
notes: recombinant rabbit IgG
For the molecule B4, the concentration for a half-maximal effect (EC50) was found to be 0.0132 µg/mL.

B5: B1-#76 (antibody, V domains shown)
VH: EQSVEESGGGLVQPEGSLTLTCTASGFSFSGSCDMSWVRQAPGKGLEWIACIVLSNGNTYYAGWAQGRFTISKISSTTVTLEMTSLTAADTATYFCARERYPGAFSSGLDLWGQGTLVTVSS
VL: ELDLTQTPSPVSAAVGGTVTINCQASQIVANGRLAWYQQKPGQPPKLLIYATSTLASGVPSRFKGSGSGTQFTLTINGVQCDDAATYYCQGAYSSGDVRTFGGGTEVVVK
notes: recombinant rabbit IgG
B5: the EC50 amounted to 0.0284 µg/mL.

B6: B1-#7 (antibody, V domains shown)
VH: EQSLEESGGGLVKPGASLTVTCAVSGFSLNSYAITWVRQAPGKGLEYIGYIDTGASITDYASWAKGRFTISKTSSTTVTLEMTSLTDADTATYFCARGFSMFKLWGPGTLVTISS
VL: ELDLTQTPSSVSAAVGGTVTISCQASQSVYGNNRLAWYHQKPGQPPKRLIYLASTLDSGVPSRFKGAGSGTQFTLTISDLECDDAATYYCAGGYAGNFNAFGGGTEVEIK
notes: recombinant rabbit IgG
On to B6, for which the EC50 turned out to be 0.0159 µg/mL.

B7: B1-#19 (antibody, V domains shown)
VH: EQSVEESGGGLVKPEGSLTLTCKASGLDFSSSYWSCWVRQTPGRGLEWIGCIDVGSSGGSYYASWARGRFTVSKGSSTTVTLQMTSLTAADTATYFCASTTTNVFGYDLWGPGTLVTVSS
VL: ELDLTQTPASVSEPVGGTVTIKCQASQNIYNNLAWYQQKPGQPPKLLIYYASTLASGVPPRFSGSGSGTEYTLTISDLECDDAATYYCQNNAGIYGGYGHGFGGGTEVVVK
notes: recombinant rabbit IgG
On to B7, for which the EC50 amounted to 0.0196 µg/mL.

B8: B1-#58-1 (antibody, V domains shown)
VH: EQSLEESGGDLVKPGASLTLTCTASAFSFSSSSWICWVRQAPGKGLEWIACIYGGSVGTTYYASWAKGRFTISKPSSTTVTLQMTSLAAADTATYFCATNTDSSRSYYNLWGPGTLVTISS
VL: ELVLTQTPSSVEVAVGGAVTIKCQASHIITNYLAWYQQRPGQPPKLLIYDASKLASGVPSRFKGSGSGTEFTLTISDLECADAATYYCQNYLYFSSGDWNVFGGGTEVVVK
notes: recombinant rabbit IgG
For the molecule B8, the half-maximal effective concentration (EC50) is 0.0171 µg/mL.

B9: B1-#83 (antibody, V domains shown)
VH: B8 VH with E5K, G58A, S64T, A88P, I119V
VL: B8 VL with V3D
notes: recombinant rabbit IgG
Take B9: the 50% effective concentration (EC50) was 0.0155 µg/mL.

B10: B1-#125 (antibody, V domains shown)
VH: EQSLEESGGGLVQPEGSLTLTCTASGFSFTKNYYMCWVRQAPGKGLEWIGCIYAGSTNTFYASWAKGRFTISKASSTTVDLKMTSLTVADTATYFCARDFVSYLNLWGPGTLVTVSS
VL: ELDLTQTPSSSSAAVGGTVTINCQASQSVYNKNYLSWFQQKPGQPPKLLIYYASTLASGVPSRFKGSGSGTEFTLTISDVVCDDAATYYCAAYKGVSDDGISFGGGTEVEIK
notes: recombinant rabbit IgG
B10: the EC50 turned out to be 0.0076 µg/mL.

B11: B1-#196-2 (antibody, V domains shown)
VH: B10 VH with E1Q, Q2E, S3Q, E5V, A24D
VL: ELDMTQTPSSTSAAVGGTVTIKCQASQSVYNNNQLSWFQQKPGQPPKRLIYGASTLESGVPSRFSGSGSGTQFTLTISDLECDDAATYYCQGAVSSDYYPFGGGTEVEIK
notes: recombinant rabbit IgG
Turning to B11, the 50% effective concentration (EC50) worked out at 0.151 µg/mL.

B12: B1-#128 (antibody, V domains shown)
VH: RAVGKESGGDLVTLGGSLKLSCKASGIDLSNFYYMCWVRQAPGKGLEWIGCVASDSSRTHYATWPKGRFTISKTSSTTVTLQMTSLTAADTATYFCARGSGASTNGVWWVMGDGMDLWGPGTLVTVSS
VL: ELDMTQTPSSVSAAVGGTVTIKCQASQSISSYLSWYQQKPGQPPKRLIYKASTLPSGVPPRFKGSGSGTEFTLTISDLECADAATYYCQNNYHSGSSNGGGFAFGGGTQVEIK
notes: recombinant rabbit IgG
With B12, the half-maximal effective concentration (EC50) came out at 0.04 µg/mL.

B13: B1-#15 (antibody, V domains shown)
VH: EQSVEESGGDLVKPGASLTLTCTASGFSSSSSAYMCWVRQAPGKGLEWIACIFIGSGSDSYYATWAKGRFTISKTSSTTVTLQMTSLTAADTATYFCARNTYDWNGYIYGPCYFGLWGPGTLVTISS
VL: ELDLTQTPSSVEAAVGGTVTIKCQASQSIYNYLAWYQQKPGHSPKLLIYDVSKLASGVSSRFKGSGSGTEFTLTISDLECADAATYYCQSYYGNTVSFTFGGGTEVEIK
notes: recombinant rabbit IgG
Take B13: the EC50 came out at 0.0093 µg/mL.

B14: B1-#220 (antibody, V domains shown)
VH: QSVEESGGGLVQPEGSLTLTCTASGFSFSGIVYMCWVRQAPGKGLEWIACAFVGSGGSTYYATWATGRFTISKTSSTTVTLQMTSLTAADTATYFCAKSYNYNGLGLWGPGTLVTVSS
VL: ELDMTQTPASVSAAVGGTVTIKCQASQSITNALAWYQQKPGQPPKLLIYRASTLASGVSSRFKGSGSGTEFTLTISDLECADAATYYCQCSYYGSTYFGSPFGGGTEVEIK
notes: recombinant rabbit IgG
For B14, the EC50 was 0.0106 µg/mL.

B15: B1-#10 (antibody, V domains shown)
VH: EQSVEESGGGLVKPEGSLTLTCKASGLDFSSSYWICWVRQAPGKGLEWIACIDTGSSGSTYYASWAKGRFTVSKTSSTTVSLQMTSLTAADTATYFCASTPNSLGYDLWGPGTLVTISS
VL: ELDLTQTPASVSAAVGGTVTIKCQASQNIVSNLAWYQQKPGQRPKLLIYYASTLASGVPSRFKGSGSGTEYTLTISDLECADAATYYCQNNAGIYGNYGHGFGGGTELEIK
notes: recombinant rabbit IgG
Consider B15, for which the concentration giving a half-maximal response (EC50) was 0.0209 µg/mL.

B16: B1-#98 (antibody, V domains shown)
VH: EQSLEESGGDLVKPEGSLTLTCTASGFSFSSSYWICWVRQAPGKGLEWIACVATGSGTTDYASWAKGRFTMSKTSSTTVTLQMTSLTVADTATYFCARIGAFYSFRLWGPGTLVTISS
VL: ELDLTQTPGSVEAAVGGTVTIKCQAGQSIYNYLSWYQQKPGQPPKLLIYSASTLESGVPPRFSGSGSGTEFTLTISDLECADAATYSCQNNYGIGSNYGPGFGGGTEVEIK
notes: recombinant rabbit IgG
As to B16, the half-maximal effective concentration (EC50) came out at 0.038 µg/mL.

B17: B1-#56 (antibody, V domains shown)
VH: QSLEESGGDLVQPEGSLTLTCTASGFSFSINLYMCWVRQAPGKGLEWIACIYGNNNANTYYTTWAKGRFTISKTSPTTVTLQMTSLTGADTATYFCARDTAAYYAFSLWGPGTLVTISS
VL: ELVMTQTPSSSSAAVGGTVTIKCQASQSIGSRFAWYQQKPGQRPKLLIYEASKLPSGVPSRFKGSGSGTEFTLTISDLECADAAIYYCQCTYYESSSGGGFGGGTEVVVK
notes: recombinant rabbit IgG
Take B17: the EC50 was found to be 0.0438 µg/mL.

B18: B1-#115 (antibody, V domains shown)
VH: EQSVKESGGGLVQPEGSLTLTCTASGFSFSSSYWICWVRQAPGKGLEWIGCIATGTGSTYYANWVNGRFTMSKPSSTTVTLQMTTLTAADTATYFCARGGGYWSFSLWGPGTLVTISS
VL: ELVMTQTPSSVEAAVGGTVTNKCQASEDIYSNLAWYQQKPGQPPKLLIYGATTLASGVPSRFKGSGSGTEFTLTISDLECADAATYYCQAESNDVWAFGGGTEVVVK
notes: recombinant rabbit IgG
On to B18, for which the EC50 worked out at 0.052 µg/mL.

B19: B1-#18 (antibody, V domains shown)
VH: EQSVKESGGGLVKPGGTLTLTCIVSGFSLSRYAVTWVRQAPGKGPEWIGYIDTSSGNKDYANWVNGRFTISKTSSTTVTLQMTSLTAADTATYFCARGFSMFKLWGPGTLVTISS
VL: ELVMTQTPSSVSAAVGGTVTISCQASQSVYNNNNLAWYQQKPGQPPKRLIYSASTLDSGVPSRFSGSGSGTQFTLTISDLECDDAATYYCAGGYTYNINIFGGGTEVEIK
notes: recombinant rabbit IgG
Regarding B19, the EC50 turned out to be 0.0182 µg/mL.

B20: B1-#226 (antibody, V domains shown)
VH: QEQLVESGGGLVQPEGSLTLTCTASGFSFSSRQYISWVRRAPGKGLEWIGAIVTVNNKVHYANWAKGRFTISEASSTTVTLQMTSLTAADTATYFCARWRTFGLWGPGTLVTVSS
VL: ELVLTQTPSSKSVAVGDTVTINCQASENVYSNNYTSWFQQKPGQPPKQLLYYAAYRASGVPSRFKGSGSGTEFTLSISDVVCDDAATYYCSGHKDYSDDGSTFGGGTEVVVK
notes: recombinant rabbit IgG
On to B20, for which the EC50 worked out at 0.00826 µg/mL.

B21: B1-#38 (antibody, V domains shown)
VH: EQSVEESEGGLVQPEGSLTLTCTASGFSFSNDYWICWVRQAPGKGLEWIGCGHIGSFRTTYYASWAKGRFSISKTSSTTVTLQMTSLTGADTATYFCARSPYDDGYGGFTFNLWGPGTLVTISS
VL: ELDMTQTPSSVEAAVGGTVTVKCQVSQSIGNAIAWYQQKPGQPPKLLIYKASTLASGVPSRFKGSGSGTEFTLTISDLECADAATYYCQNYYYSNTNSFGGGTEVVVK
notes: recombinant rabbit IgG
For B21, the concentration giving a half-maximal response (EC50) is 0.181 µg/mL.

B22: B1-#28 (antibody, V domains shown)
VH: EQSLEESGGGLVKPGASLTLTCKASGFSFSSDYDMCWVRQAPGKGLEWIGCIVTGFSGRIYYATWARGRFTFSRTSSTTLTLQMTSLTAADTATYFCARDSGNYNWDLWGPGTLVTISS
VL: ELDLTQTPTSVSAAVGGTVTIKCQASQSISDYLSWYQQKPGQPPKLLIYRASTLASGVPSRFKGSGSGTEFTLTISDLECADAATYYCQSNYYGSQGCTFGGGTEVEIK
notes: recombinant rabbit IgG
Consider B22, for which the concentration for a half-maximal effect (EC50) is 0.0242 µg/mL.
